What was measured:
[1] = Homolysis kinetics of alkoxyamines by EPR (growth of nitroxide); format: physicochemical; details: mixture of diastereoisomers; for Homolysis rate constant kd: 0.1 mM alkoxyamine, O2 as alkyl radical scavenger; for Activation energy Ea: by Equation (2) from kd and T, A = 2.4 10^14 s^−1
Procedure: Preparation of alkoxyamines and reference samples. All reagents including anhydrous solvents used for the chemical synthesis were purchased from commercially available sources such as Merck, TCI, and Fluorochem, and were used without further purification. All air and/or water-sensitive reactions were carried out under an argon atmosphere with dry solvents using standard syringe-cannula/septa techniques. Routine monitoring of reactions was performed using Merck Silica gel 60 F254, aluminum-supported TLC plates; spots were visualized using UV light and ethanolic acidic para-anisaldehyde solution or ethanolic phosphomolybdic solution, followed by heating. Purifications by means of column chromatography were performed with Silica gel 60 (230–400 mesh). ^1H, ^13C, and ^19F NMR spectra were obtained in CDCl3, MeOD (with residual H2O), D2O, DMSO-d6, or C6D6 solutions on by using Bruker AC400 (400 MHz) and Bruker AC300 (300 MHz) spectrometers. High-resolution mass spectra (HRMS) have been performed using a SYNAPT G2 HDMS (Waters) mass spectrometer equipped with a pneumatically assisted atmospheric pressure ionization (API) source. The sample was ionized in positive electrospray mode under the following conditions: electrospray voltage: 2.8 kV; port voltage: 20 V; Nebulizing gas flow rate (nitrogen): 100 L/h or in negative electrospray mode under the following conditions: electrospray voltage: −2.27 kV; port voltage: −20 V; Nebulizing gas flow rate (nitrogen): 100 L/h. The mass spectra (MS) were obtained with a time-of-flight (TOF) analyzer. The exact mass measurements were carried out in triplicate with external calibration. Homolysis constants were measured by EPR on an EMX Bruker spectrometer from 10^−4 M samples in tertbutyl benzene or in a mixture of H2O-nPrOH (1:1; v:v).
Kinetic experiments. Kinetics of A1–A7 (Scheme 2) for series L and D are performed by monitoring the growth of nitroxide by Electron Paramagnetic Resonance (X-band EMX Bruker machine) in tert-butylbenzene and a water/n-PrOH (for a good solubility of the alkoxyamine) as solvents and using O2 as alkyl radical scavenger to suppress the back reaction (kc in Scheme 2) as already reported. Homolysis rate constants kd are given by Equation (1) ([nitroxide]∞ = [alkoxyamine]0 = 0.1 mM, see Table S1) and the subsequent activation energies Ea given by Equation (2). (1) lnnitroxide∞−nitroxidet/nitroxide∞=−kd·t, (2) Ea=−RTlnkd/A.

[2] = system: Schistosoma mansoni adult worms; assay: Viability of Schistosoma mansoni adult worms in vitro; format: cell-based, Schistosoma mansoni NMRI strain; details: 37 °C
Procedure: Experiments on the viability of Schistosoma mansoni adult worms. In vitro tests were performed on Schistosoma mansoni NMRI strains. This parasite is lab maintained on Biomphalaria glabrata (BRE strain) as intermediate mollusc host and Golden Hamster (Janvier Labs, Le Genest-Saint-Isle, France) as definitive vertebrate host. Methods, for molluscs’ and hamsters’ infection and for parasite recovery, were previously described. Adult worms were recovered by hepatic perfusion technique between 42 and 47 days post hamster exposition to parasite larvae. Worms were carefully collected and disposed in 12-well Falcon® plate containing 2 mL of RPMI 1640 (supplemented with L-glutamine and Hepes 25 mM). The plates containing a minimum of 15 worms by well were then placed in an incubator chamber at 37 °C and 5% CO2. The worms sex ratio was almost balanced in each well. The drug was first dissolved in DMSO (Sigma-Aldrich) to give a 100 mg/mL mother solution. Then the stock solution was complemented with Tween 80 and RPMI to obtain the following final ratio dilution: RPMI 1640/Tween 80/DMSO and 1000/0.95/3.8, v/v/v.
All molecules were tested at a final concentration of 100 µg/mL and 10 µg/mL. A negative control consisted in adding the same RPMI 1640/Tween 80/DMSO solution, but without any drug and a positive control consisted in adding praziquantel. All molecules and control were performed in duplicates of well. The worm viability was checked after 1, 2, 3, 4, 5, 6, 7, 8, 24, 48, and 72 h after adding the molecule.

Vero cells = format: cell-based; details: 48 h
Procedure: A non-cancer line of Vero cells was used to determine the cytotoxicity of the compound against mammalian cells. They were evaluated at a final DMSO concentration of 0.5%. The culture medium was MEM (Dutscher, Bernolsheim, France) supplemented with 10% fetal bovine serum (Fisher Scientific, Illkirch, France), 1X non-essential amino acids (Fisher Scientific, Illkirch, France), 100 U/mL, 100 µg/mL penicillin/streptomycin (Fisher Scientific, Illkirch, France), and 2 mM L-glutamine (Fisher Scientific, Illkirch, France) at 37 °C in a humidified 5% CO2 atmosphere. Vero cells (100 µL of 10^5 cells/mL per well) were plated in 96-well plates for 24 h then treated with 100 µL of compound dilutions (in duplicate) during 48 h. All molecules were tested from 5 nM to 50 µM. Each well was then examined under the microscope to detect any precipitate formation before the supernatant was removed by flicking the plate. A volume of 100 µL of 0.5 mg/mL in MEM from a stock solution at 5 mg/mL of PBS-dissolved MTT (3-(4,5-dimethylthiazol-2-yl)-2,5-diphenyltetrazolium bromide, Sigma Aldrich/Merck, Darmstadt, Germany) was then added to each well [20].
After incubation for 1 h at 37 °C and 5% CO2 the supernatant was removed and 100 µL of DMSO were added. Plates were gently shaken to dissolve formazan crystals resulting from the MTT reduction by living cells and read at 570 nm with the VICTOR Nivo plate reader (Perkin Elmer, Waltham, MA, USA). CC50 values were determined using GraphPad Prism 7 software (San Diego, CA, USA).

[3] = Table S1, dose at 100 μg/ml, unit not given in Table S1 (h in Table 2)

CC(ON1C(C)(C)CCCC1(C)C)c1ccc(NC(=O)[C@@H](Cc2ccccc2)NC(=O)[C@H](NC(=O)[C@H](N)Cc2ccccc2)C(C)C)cc1 (stereo partly drawn) [A5D, (2R)-2-((R)-2-amino-3-phenylpropanamido)-3-methyl-N-((2R)-1-oxo-3-phenyl-1-((4-(1-((2,2,6,6-tetramethylpiperidin-1-yl)oxy)ethyl)phenyl)amino)propan-2-yl)butanamide]
Homolysis rate constant kd ([1]; C–ON bond homolysis in t-BuPh, EPR, T (°C): A1L 128.0, A3L 125.0, A5L 130.0, A6L 125, A7L 126.5, A1D 122.5, A3D 119.8, A5D 130): 11.6 10^−4 s^−1 | Homolysis rate constant kd ([1]; C–ON bond homolysis in water/n-PrOH v/v 1:1, EPR, T (°C): A1L 95.1, A3L 94.5, A4L 94.6, A5L 94.0, A6L 94.8, A7L 94.3, A1D 93.5, A3D 92.6, A4D 95.0, A5D 94.6): 1.3 10^−4 s^−1 | Activation energy Ea ([1]; in t-BuPh): 31.72 kcal/mol | Activation energy Ea ([1]; in water/n-PrOH v/v 1:1): 30.71 kcal/mol | time to kill all parasites [2, 3]: 4 | time to reach the death of half of the population of worms [2, 3]: 1 | Activity/toxicity towards schistosomes (in words) ([2]; adult worms, 100 μg/mL): toxic to schistosomes | CC50 (Vero cells): 2200 ± 300 nM

Reference: article PMC11206678, “Peptide-Alkoxyamine Drugs: An Innovative Approach to Fight Schistosomiasis: “Digging Their Graves with Their Forks”” (Pathogens, 2024)
